One molecule from US20190175609A1 (Novartis, published 2019) can be followed below.

The target in assay [1] is T1, Programmed Death 1 (PD-1) (UniProt Q15116 25-167, limits assumed). As to the kind of experiment: rank among the 16 humanized clones by FACS data (order agrees with the 200 ng/ml bars of FIGURE 4, 1 = highest). Background: A flow cytometer gives signals particle by particle.
Assay [2] deals with T2, PD-1 on PD-1-expressing 300.19 cells (UniProt Q15116 25-288, limits assumed).
T2 construct: whole, on cells
As to the kind of experiment: rank among the 16 humanized clones in competition binding against labeled murine mAb BAP049, 2nd exp. (FIGURE 6B).

The target of assay [3] is T2, PD-1 on PD-1-expressing 300.19 cells. As to the kind of experiment: rank among the 16 humanized clones in competition binding against labeled murine mAb BAP049, 1st exp. (FIGURE 6A).
In assay [4] the target is T1, Programmed Death 1 (PD-1). As to the kind of experiment: FACS ligand blocking: mAb titrated, signal of ligand-Ig bound to PD-1; legend paragraph 46 names PD-L1-Ig and PD-L2-Ig as blocked ligands for FIG. 8A; cells not named.

T2 sequence (Q15116 25-288 limits assumed): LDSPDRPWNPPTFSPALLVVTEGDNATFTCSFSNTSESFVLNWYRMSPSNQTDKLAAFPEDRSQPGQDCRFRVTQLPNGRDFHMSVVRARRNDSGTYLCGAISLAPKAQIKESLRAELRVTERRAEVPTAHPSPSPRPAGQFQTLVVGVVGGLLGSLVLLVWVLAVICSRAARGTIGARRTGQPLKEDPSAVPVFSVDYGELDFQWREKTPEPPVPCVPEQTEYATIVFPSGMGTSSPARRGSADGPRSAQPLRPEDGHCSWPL
T1 sequence (Q15116 25-167 limits assumed): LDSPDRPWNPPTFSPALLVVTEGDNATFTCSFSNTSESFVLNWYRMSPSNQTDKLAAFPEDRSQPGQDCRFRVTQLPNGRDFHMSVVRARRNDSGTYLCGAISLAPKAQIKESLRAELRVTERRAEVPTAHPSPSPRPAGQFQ

B1: BAP049-hum05 (antibody, human IgG4 S228P, kappa, V domains shown)
VH: EVQLVQSGAEVKKPGESLRISCKGSGYTFTTYWMHWVRQATGQGLEWMGNIYPGTGGSNFDEKFKNRVTITADKSTSTAYMELSSLRSEDTAVYYCTRWTTGTGAYWGQGTTVTVSS
VL: EIVLTQSPATLSLSPGERATLSCKSSQSLLDSGNQKNFLTWYQQKPGKAPKLLIYWASTRESGVPSRFSGSGSGTDFTFTISSLQPEDIATYYCQNDYSYPYTFGQGTKVEIKR
notes: Humanized mAb
On to B1, for which the “Ranking FACS data” value in assay [1] was found to be 5. In assay [2], the “Competition Binding 2nd exp.” value is over 4. Further, in assay [3], the “Competition Binding 1st exp.” value was found to be 5. Moreover, in assay [4], the “IC50 (read off the curve)” value was about 1 µg/mL.
